Assay results as given in patent US20170174791A1 (RAMOT AT TEL AVIV UNIVERSITY, published 2017).

Target: bovine serum albumin (BSA) (bovine, UniProt P02769 25-607)
Assay: ELISA, BSA-coated plate, goat-anti-human HRP detection

Chain of bovine serum albumin (BSA) (P02769 25-607 limits assumed): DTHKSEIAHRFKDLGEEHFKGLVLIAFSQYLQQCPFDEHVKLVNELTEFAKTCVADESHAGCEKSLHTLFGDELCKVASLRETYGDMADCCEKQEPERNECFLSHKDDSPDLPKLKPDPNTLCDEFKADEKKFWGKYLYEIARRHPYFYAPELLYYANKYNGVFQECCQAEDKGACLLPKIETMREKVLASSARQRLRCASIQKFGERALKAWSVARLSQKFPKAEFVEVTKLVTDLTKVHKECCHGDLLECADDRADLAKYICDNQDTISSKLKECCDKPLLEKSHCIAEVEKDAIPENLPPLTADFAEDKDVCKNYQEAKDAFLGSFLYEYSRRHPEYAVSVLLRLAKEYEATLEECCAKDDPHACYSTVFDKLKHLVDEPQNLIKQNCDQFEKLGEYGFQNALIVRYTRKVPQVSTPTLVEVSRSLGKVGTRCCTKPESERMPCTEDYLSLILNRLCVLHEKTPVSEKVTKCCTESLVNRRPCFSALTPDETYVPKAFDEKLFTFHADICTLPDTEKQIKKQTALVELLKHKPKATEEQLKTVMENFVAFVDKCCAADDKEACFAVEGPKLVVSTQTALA

B1: T427-αPE (B11 clone) IgG (bispecific, CD30 and PE38) (bispecific antibody)
light 1: not shown
heavy 1: not shown
light 2: MDIVLTQPPSASGTPGQRVTISCSGTSSDVGNSNLVSWYQQLPGTAPKLLIYGNSNRPSGVPDRFSGSKSGTSASLAISGLRSEDEADYYCCSYAGTGSPDVFGTGTKLTVLGQPKAAPSVTLFPPSSEELQANKATLVCLISDFYPGAVTVAWKADSSPVKAGVETTTPSKQSNNKYAASSYLSLTPEQWKSHRSYSCQVTHEGSTVEKTVAPAECS
heavy 2: MEVQLLETGGGLVQPGGSLRLSCAASGFTFDNYAINWVRQAPGKGLEWVSGISWNSGSIGYADSVKGRFTISRDNSKNTLYLQMNSLRAEDTAVYYCARGAPHYGGRGEFDFWGQGTLVTVSSASTKGPSVFPLAPSSKSTSGGTAALGCLVKDYFPEPVTVSWNSGALTSGVHTFPAVLQSSGLYSLSSVVTVPSSSLGTQTYICNVNHKPSNTKVDKRVEPKSCDKTHTCPPCPAPELLGRPSVFLFPPKPKDTLMISRTPEVTCVVVDVSHEDPEVKFNWYVDGVEVHNAKTKPREEQYNSTYRVVSVLTVLHQDWLNGKEYKCKVSNKALPAPIEKTISKAKGQPREPQVCTLPPSREEMTKNQVSLSCAVKGFYPSDIAVEWESNGQPENNYKTTPPVLDSDGSFFLVSKLTVDKSRWQQGNVFSCSVMHEALHNHYTQKSLSLSPGK
notes: also called T427-αPE (bispecific)
- binding result: no binding
